Values quoted from earlier work in publication PMC12493190.

Legend:
[1] = molecular target: parkin pUbl Ubl (Homo sapiens) (UniProt O60260)
[2] = molecular target: phospho-ubiquitin (Homo sapiens) (UniProt P0CG47)

parkin RING0, sequence (O60260 141-225): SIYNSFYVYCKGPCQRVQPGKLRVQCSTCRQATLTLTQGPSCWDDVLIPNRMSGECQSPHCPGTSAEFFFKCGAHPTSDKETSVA
parkin pUbl Ubl (Homo sapiens), sequence (O60260 1-76): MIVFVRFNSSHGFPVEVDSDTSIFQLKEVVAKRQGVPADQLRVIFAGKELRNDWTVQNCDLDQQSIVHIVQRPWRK

Kd [1]: 1000 nM | Kd [2]: 400 nM
Substance: parkin RING0 (from UniProt O60260)
